9 substances from publication PMC10636607 can be followed below.

What all share (assay): BLI
On the technique in general: In BLI a coated tip is dipped into the sample, and binding shifts an interference pattern.

One assay has as its target influenza HA.
The target of a further assay is SARS-CoV-2 spike.
For assay [1], the target named is biotinylated SARS-CoV-2 fusion peptide.
Assay [2] has as its target HCV E2 envelope glycoprotein.
Assay [3] deals with HC84.26.5D Fab VH G50R (human).

Where two headings read alike, the source gives them in different places.

Chain of HC84.26.5D Fab VH G50R (human) (heavy, as listed by the source, chain 1 of 2): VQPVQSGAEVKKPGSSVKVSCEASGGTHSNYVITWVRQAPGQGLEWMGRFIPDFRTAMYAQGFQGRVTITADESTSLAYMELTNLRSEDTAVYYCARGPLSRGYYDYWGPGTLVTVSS
Chain of HC84.26.5D Fab VH G50R (human) (light, as listed by the source, chain 2 of 2): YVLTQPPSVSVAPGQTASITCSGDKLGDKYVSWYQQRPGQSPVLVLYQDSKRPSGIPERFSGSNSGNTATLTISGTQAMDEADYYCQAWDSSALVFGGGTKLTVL

Regarding 8F8 (WT) H:S31R, the ratio to parent in the assay with influenza HA was over 100.

As for Ab326 (WT) H:V50F, the ratio to parent in the assay with SARS-CoV-2 spike (read off a plot) is 9.4. As for COV44-62 Fab (WT) H:R50W, in assay [1], the ratio to parent is over 100. In the case of COVOX-316 (WT) H:W50R, the ratio to parent in the assay with SARS-CoV-2 spike is over 100. Take H1244 (WT) H:S32Y: the ratio to parent with influenza HA was over 100. As to HC33.8 (WT) H:S52Y, in assay [2], the ratio to parent was over 100.

HCV1 (WT) H:W52S: in assay [2], the ratio to parent is over 100. As for “HCV (isolate H77) E2 domain protein (domain or fragment)”, the fold change in KD against the wild-type Fab in assay [3] was 6 fold.

As to P008_60 (WT) H:S52R, in the assay with SARS-CoV-2 spike, the ratio to parent was over 100.
